According to patent US20110263454A1, “Methods of Identifying Functional Characteristics of Promoters, Transcription Modifying Proteins and Transcription Modulating Agents” (Salk Institute for Biological Studies, priority 2008, published 2011):

B1: PR: Progesterone Receptor (NR3C3), cDNA driver (protein, UniProt P06401 1-933, looked up)
Progesterone receptor: MTELKAKGPRAPHVAGGPPSPEVGSPLLCRPAAGPFPGSQTSDTLPEVSAIPISLDGLLFPRPCQGQDPSDEKTQDQQSLSDVEGAYSRAEATRGAGGSSSSPPEKDSGLLDSVLDTLLAPSGPGQSQPSPPACEVTSSWCLFGPELPEDPPAAPATQRVLSPLMSRSGCKVGDSSGTAAAHKVLPRGLSPARQLLLPASESPHWSGAPVKPSPQAAAVEVEEEDGSESEESAGPLLKGKPRALGGAAAGGGAAAVPPGAAAGGVALVPKEDSRFSAPRVALVEQDAPMAPGRSPLATTVMDFIHVPILPLNHALLAARTRQLLEDESYDGGAGAASAFAPPRSSPCASSTPVAVGDFPDCAYPPDAEPKDDAYPLYSDFQPPALKIKEEEEGAEASARSPRSYLVAGANPAAFPDFPLGPPPPLPPRATPSRPGEAAVTAAPASASVSSASSSGSTLECILYKAEGAPPQQGPFAPPPCKAPGASGCLLPRDGLPSTSASAAAAGAAPALYPALGLNGLPQLGYQAAVLKEGLPQVYPPYLNYLRPDSEASQSPQYSFESLPQKICLICGDEASGCHYGVLTCGSCKVFFKRAMEGQHNYLCAGRNDCIVDKIRRKNCPACRLRKCCQAGMVLGGRKFKKFNKVRVVRALDAVALPQPVGVPNESQALSQRFTFSPGQDIQLIPPLINLLMSIEPDVIYAGHDNTKPDTSSSLLTSLNQLGERQLLSVVKWSKSLPGFRNLHIDDQITLIQYSWMSLMVFGLGWRSYKHVSGQMLYFAPDLILNEQRMKESSFYSLCLTMWQIPQEFVKLQVSQEEFLCMKVLLLLNTIPLEGLRSQTQFEEMRSSYIRELIKAIGLRQKGVVSSSQRFYQLTKLLDNLHDLVKQLHLYCLNTFIQSRALSVEFPEMMSEVIAAQLPKILAGMVKPLLFHKK
B2: NR4a2: NR4a2 (NR4A2; NURR1), nuclear hormone receptor cDNA driver (protein, UniProt P43354 1-598, looked up)
Nuclear receptor subfamily 4 …: MPCVQAQYGSSPQGASPASQSYSYHSSGEYSSDFLTPEFVKFSMDLTNTEITATTSLPSFSTFMDNYSTGYDVKPPCLYQMPLSGQQSSIKVEDIQMHNYQQHSHLPPQSEEMMPHSGSVYYKPSSPPTPTTPGFQVQHSPMWDDPGSLHNFHQNYVATTHMIEQRKTPVSRLSLFSFKQSPPGTPVSSCQMRFDGPLHVPMNPEPAGSHHVVDGQTFAVPNPIRKPASMGFPGLQIGHASQLLDTQVPSPPSRGSPSNEGLCAVCGDNAACQHYGVRTCEGCKGFFKRTVQKNAKYVCLANKNCPVDKRRRNRCQYCRFQKCLAVGMVKEVVRTDSLKGRRGRLPSKPKSPQEPSPPSPPVSLISALVRAHVDSNPAMTSLDYSRFQANPDYQMSGDDTQHIQQFYDLLTGSMEIIRGWAEKIPGFADLPKADQDLLFESAFLELFVLRLAYRSNPVEGKLIFCNGVVLHRLQCVRGFGEWIDSIVEFSSNLQNMNIDISAFSCIAALAMVTERHGLKEPKRVEELQNKIVNCLKDHVTFNNGGLNRPNYLSKLLGKLPELRTLCTQGLQRIFYLKLEDLVPPPAIIDKLFLDTLPF
B3: NR4a3: NR4a3 (NR4A3; NOR1), nuclear hormone receptor cDNA driver (protein, UniProt Q92570 1-626, looked up)
Nuclear receptor subfamily 4 …: MPCVQAQYSPSPPGSSYAAQTYSSEYTTEIMNPDYTKLTMDLGSTEITATATTSLPSISTFVEGYSSNYELKPSCVYQMQRPLIKVEEGRAPSYHHHHHHHHHHHHHHQQQHQQPSIPPASSPEDEVLPSTSMYFKQSPPSTPTTPAFPPQAGALWDEALPSAPGCIAPGPLLDPPMKAVPTVAGARFPLFHFKPSPPHPPAPSPAGGHHLGYDPTAAAALSLPLGAAAAAGSQAAALESHPYGLPLAKRAAPLAFPPLGLTPSPTASSLLGESPSLPSPPSRSSSSGEGTCAVCGDNAACQHYGVRTCEGCKGFFKRTVQKNAKYVCLANKNCPVDKRRRNRCQYCRFQKCLSVGMVKEVVRTDSLKGRRGRLPSKPKSPLQQEPSQPSPPSPPICMMNALVRALTDSTPRDLDYSRYCPTDQAAAGTDAEHVQQFYNLLTASIDVSRSWAEKIPGFTDLPKEDQTLLIESAFLELFVLRLSIRSNTAEDKFVFCNGLVLHRLQCLRGFGEWLDSIKDFSLNLQSLNLDIQALACLSALSMITERHGLKEPKRVEELCNKITSSLKDHQSKGQALEPTESKVLGALVELRKICTLGLQRIFYLKLEDLVSPPSIIDKLFLDTLPF
B4: GCNF: Germ Cell Nuclear Factor (NR6A1, GCNF1), cDNA driver (protein, UniProt Q15406 1-480, looked up)
Nuclear receptor subfamily 6 …: MERDEPPPSGGGGGGGSAGFLEPPAALPPPPRNGFCQDELAELDPGTISVSDDRAEQRTCLICGDRATGLHYGIISCEGCKGFFKRSICNKRVYRCSRDKNCVMSRKQRNRCQYCRLLKCLQMGMNRKAIREDGMPGGRNKSIGPVQISEEEIERIMSGQEFEEEANHWSNHGDSDHSSPGNRASESNQPSPGSTLSSSRSVELNGFMAFREQYMGMSVPPHYQYIPHLFSYSGHSPLLPQQARSLDPQSYSLIHQLLSAEDLEPLGTPMLIEDGYAVTQAELFALLCRLADELLFRQIAWIKKLPFFCELSIKDYTCLLSSTWQELILLSSLTVYSKQIFGELADVTAKYSPSDEELHRFSDEGMEVIERLIYLYHKFHQLKVSNEEYACMKAINFLNQDIRGLTSASQLEQLNKRYWYICQDFTEYKYTHQPNRFPDLMMCLPEIRYIAGKMVNVPLEQLPLLFKVVLHSCKTSVGKE

Experiments:
hPOMC promoter = experiment: NHR-promoter luciferase screen, hPOMC promoter; assay type: cell-based, human; conditions: for Luc. act., normalized to lacZ / Normalized Luc. act., normalized to control: hPOMC promoter, HR/ligand component; for hPOMC promoter reporter activity: transcription factor +/- ligand, control = 1.00
Method in brief: (§1)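 CV-1 cells were co-transfected with 50 ng NHR (homodimer or NHR/RXR heterodimer), 100 ng promoter-luciferase construct and 50 ng LacZ. Luciferase was normalized to LacZ and to a no-NHR/no-ligand control.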

mDio2 promoter = experiment: NHR-promoter luciferase screen, mDio2 promoter; assay type: cell-based, mouse; conditions: for Luc. act., normalized to lacZ / Normalized Luc. act., normalized to control: Dio2, HR component without or with its ligand; for mDio2 promoter reporter activity: transcription factor +/- ligand, control = 1.00
Method in brief: as §1

hMyoD promoter = experiment: NHR-promoter luciferase screen, hMyoD promoter; assay type: cell-based, human; conditions: for Luc. act., normalized to lacZ / Normalized Luc. act., normalized to control: MyoD promoter reporter, co-transfected HR, without or with its ligand; for Normalized Luc. act., normalized to control: relative to control; for luciferase activity normalized to lacZ activity and to a control, hMyoD: hMyoD promoter-luciferase, CV-1 cells, NHR +/- ligand, control = 1.00
Method in brief: as §1

SREBP1c promoter = experiment: NHR-promoter luciferase screen, SREBP1c promoter; assay type: cell-based, mouse; conditions: for Luc. act., normalized to lacZ / Normalized Luc. act., normalized to control: SREBP1c promoter, HR component without or with ligand; for mSREBP1-c promoter reporter activity: transcription factor +/- ligand, control = 1.00
Method in brief: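 Values are luciferase activity normalised to LacZ (transfection control) and to a control lacking NHR or ligand. Read-out at 48 h in CV-1 cells carrying 100 ng promoter-reporter, 50 ng receptor (alone or with RXR) and 50 ng LacZ.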

hTNFa promoter = experiment: NHR-promoter luciferase screen, hTNFa promoter; assay type: cell-based, human; conditions: for Luc. act., normalized to lacZ / Normalized Luc. act., normalized to control: TNFa promoter, HR component without or with ligand; for hTNFa promoter reporter activity: transcription factor +/- ligand, control = 1.00
Method in brief: as §1

mUCP1 promoter = experiment: NHR-promoter luciferase screen, mUCP1 promoter; assay type: cell-based, mouse; conditions: for Luc. act., normalized to lacZ / Normalized Luc. act., normalized to control: mUCP1 promoter reporter, co-transfected HR, with or without its ligand; for Normalized Luc. act., normalized to control: relative to control; for luciferase activity normalized to lacZ activity and to a control, mUCP!: mUCP! promoter-luciferase, CV-1 cells, NHR +/- ligand, control = 1.00
Method in brief: as §1

Molecule	Luc. act., normalized to lacZ (hPOMC promoter)	Normalized Luc. act., normalized to control (hPOMC promoter)	hPOMC promoter reporter activity (hPOMC promoter)	Luc. act., normalized to lacZ (mDio2 promoter)	Normalized Luc. act., normalized to control (mDio2 promoter)	mDio2 promoter reporter activity (mDio2 promoter)	Luc. act., normalized to lacZ (hMyoD promoter)	Normalized Luc. act., normalized to control (hMyoD promoter)	luciferase activity normalized to lacZ activity and to a control, hMyoD (hMyoD promoter)	Luc. act., normalized to lacZ (SREBP1c promoter)	Normalized Luc. act., normalized to control (SREBP1c promoter)	mSREBP1-c promoter reporter activity (SREBP1c promoter)	Luc. act., normalized to lacZ (hTNFa promoter)	Normalized Luc. act., normalized to control (hTNFa promoter)	hTNFa promoter reporter activity (hTNFa promoter)	Luc. act., normalized to lacZ (mUCP1 promoter)	Normalized Luc. act., normalized to control (mUCP1 promoter)	luciferase activity normalized to lacZ activity and to a control, mUCP! (mUCP1 promoter)
B1	3.2	0.7	0.75	21.4	1.4	1.36	70.4	1.1	1.11	466.4	1.4	1.45	1214.8	1.2	1.24	5.4	1.2	1.21
B2	2.1	0.5	0.49	12.4	0.8	0.79	51.9	0.8	0.82	456.2	1.4	1.42	735.5	0.7	0.75	4.4	1.0	0.99
B3	2.7	0.6	0.63	14.8	0.9	0.94	56.1	0.9	0.89	358.6	1.1	1.11	691.0	0.7	0.70	3.8	0.9	0.86
B4		0.0	0.00	22.7	1.4	1.44	50.5	0.8	0.80	368.2	1.1	1.14	1203.7	1.2	1.22	3.8	0.8	0.85
